Source: the DeepSol protein solubility set

Test: soluble on expression in E. coli; label from the status in PepcDB or PDB records

Soluble on expression in E. coli, not soluble:
MGSDKIHHHHHHMRYTYRHIGILTISLIVASCSFSQKQADNNHDKDMNPNVKIVVLDPGHFHASLLQKNPLASVNDTIRVYAPEGAEVKQYLNDINSYNQRAENPTSWKEEIYIGGDYLSRMLSDRQGDVVVLAGNNQKKTNYILEAIKAGYNVLSDKPLAINKKDFDLLIQAYQLAKERKLLLYDLMTERYDILNIIEKALLNNPDLFGELQKGSLNDPSVSMESVHHFFKNVSGKPLIRPVWYYDTEQQGEGIADVTTHLIDLVNWQCFPNETIRYQSDVEVLKARHWPTRITLPEFSQSTQADTFPAFLNKYINNNVLEVLANGSLNYTVKGIHIGMKVIWNYTPPSDGGDTFTSLKKGSKATLKTIQDKESGFVKQLYIQRAADSDHSEFESQLQKAIKQLQATYPFLSVKKMNEGLYLIDIPQADRLGHEAHFSKVAEAFLGYLHDKNMPEWENENTISKYYITTTAVELAKKEK, MGSDKIHHHHHHMSALVDPVTDTDLDAYVDDQLDVTRRIEVEAFLSTRPEAAARVMSDLRTRDELRVALAGSKGMARPATADAARRLERGLARGRIFGVLQRSAAVAAFVAAGWLANGIIGPMSVTKVVASPQPPAYVDEAVRAHRTTLVRETMPSQPEAPNYSAGEIRAATAIVMPSLPKDWKVRDVQIYPSRFGPSVEMAVDTKDMGLVSLFAIRPGTFDVVKPTVAPSGDISSAYFQIGEVAYAVVAKSGVRDLDRAAETLARTLY, MGSDKIHHHHHHMSATSLYRLFAPQIEFLSPAEKQVFFYIDNHISTIEKMSLTSLAESTNVSTTTVIRMCHKLKLSGFSELKFLLHSDKTETKPLSKDYSSTFLEKIRLGIEQLPKKEIEQVATRIAYAPKIYIACLGMTKTLGEYFSKSLVTSKKNVVFTYDSFIIDILPQIVERDDLIIIISESGGTENTLSLAEHLKYNLSNVIAIVNNPNAQISQYVETIIYASSEEFDEDSFKHHHAPLLIVIDLILNIFEQQKKLI, MGSDKIHHHHHHMSDGRLTALFPAFPHPASNQPVFAEASPHDDELMTQAVPQVSCQQALAIAQQEYGLSGQMSLLQGERDVNFCLTVTPDERYMLKVINAAEPADVSNFQTALLLHLARQAPELPVPRIRSTKAGQSETGVEIDGVLLRVRLVSYLAGMPQYLASPSTALMPQLGGTLAQLDNALHSFTHPAANRALLWDISRAEQVRPYLDFVSEPQQYQHLQRIFDRYDSNVAPLLTTLRRQVIHNDLNPHNVLVDGSSPTRVTGIIDFGDAVFAPLICEVATALAYQIGDGTDLLEHVVPFVAAYHQRIPLAPEEIALLPDLIATRMALTLTIAQWRASRYPDNREYLLRNVPRCWHSLQRIATYSHAQFLTRLQQVCPENAR, MGSDKIHHHHHHMSDIIQFPNSSKKLYKDIKRAEQDQNYDLMYEYIVQYERQFELTEEIAMMKCRMLYETGSFLELREETIVLLKTGIQQYDALMIYYVKSLIGLGQYFEAVEVIHQIIDEVKDHKTRMALHPLKEFAKSKLIEDEKRLTQSLTDFDTLSMREQTHLILKLIDNGHFQFQETVLYILKSNTYSYNLISLMIEYLRFANCTQELTIEKYGMDVTFVPANLNGLEHTTLKEKVIPNVMETLNDGALHIAEEAHHIMNNHSIMIYPIDIETLFETNKWINAYECYFKNMLGLKCELQSIDAFNFIQQLDLNNNS, MGSDKIHHHHHHMSDIPYQTIDTRALHRFAQPDRIAPAMYHDPALFEAELDRIFYRTWIWVAHDSELPNPGDFITTTIGRQPVIVVRDKTGEINVLQNRCRHRGATVCESHKGNAKGFTCPYHSWSYALDGTLRALPYGDGYEGVCEKGDLPLVKLRVGVYQGLIFASFNDDIEPLEDFLGGAKPWIDLFMKQGAGYPIKANGEHKFKFKGNWKIQLENTTDLYHFPVVHKSWMKSIDDETAAAITSFMTSEHAFCRALGNGHSLAVLMPELIDLDEDDGAPLPERFAPLAATLAERHAPDEVRRIVRSLLGVGFNLNLFPNLALSMAFFRVLRPISANETEIRHVALAMDGGPDEANRERLRIHEHFQGPFGFGSPDDAEAWERVQRGAHAGPDVPILVNRGLNRETTAANGEKTAHATDETGMREAYQQWRKLMEQA, MGSDKIHHHHHHMSDSVSIAKYMHRDCLHCPAPLVGTSFKPCHFADIVDNGLQDGFFEVHAENYMGKGGPPHRALSALRETYPVSVHGVCLSIGGPSPLDAHHLARFRDVVARYEPVLVSEHLAWSSHGGAFYNDLLPLPYTKATLDRVCAHVDQIQEAIARPLLLENPSTYVGFASSTMSETEFIAAVAGRTGCGLLLDINNAFVSATNHGCSAADYLADFPLEQVGEIHLAGHSEQRDDEDEPLLIDSHDRPIAGPVWALYASVIARTGPVPTLVEWDSQLPDWLVLRAQALEARRIMDAAVASPVEVADHAL
